Data: patent US20160108115 (published 2016)
Changes are numbered by the printed parent chain. Read-outs that look alike come from different tables or passages of the source. One block for each binder: values may come before it.

Legend:
[1] = target: T1, FcγRIIa (human, UniProt P12318); assay: SPR, pH 7.4
T1 chain: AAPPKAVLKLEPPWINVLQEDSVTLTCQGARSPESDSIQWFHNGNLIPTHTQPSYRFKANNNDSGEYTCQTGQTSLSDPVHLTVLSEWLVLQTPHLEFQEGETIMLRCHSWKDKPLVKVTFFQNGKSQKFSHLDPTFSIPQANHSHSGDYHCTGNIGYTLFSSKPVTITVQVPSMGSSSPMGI

[2] = target: T2, FcγRIIIb (human, UniProt O75015); assay: SPR, pH 7.4
T2 chain: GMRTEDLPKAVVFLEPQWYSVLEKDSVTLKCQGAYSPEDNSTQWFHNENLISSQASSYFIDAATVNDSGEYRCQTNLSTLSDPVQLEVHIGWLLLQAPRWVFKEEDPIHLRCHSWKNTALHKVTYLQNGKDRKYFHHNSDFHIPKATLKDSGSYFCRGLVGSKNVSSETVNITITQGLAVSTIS

[3] = target: the molecule itself; assay: SPR, pH 7.4, self-association, engineering batch
[4] = target: T3, FcγRIIIa (human, UniProt P08637); assay: ELISA, immune complexes
T3 sequence (P08637 17-208): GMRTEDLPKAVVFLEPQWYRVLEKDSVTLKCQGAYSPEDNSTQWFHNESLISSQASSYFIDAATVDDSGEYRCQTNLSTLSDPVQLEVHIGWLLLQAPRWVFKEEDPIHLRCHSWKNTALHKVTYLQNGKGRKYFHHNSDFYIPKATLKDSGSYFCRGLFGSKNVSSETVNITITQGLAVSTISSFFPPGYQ

[5] = target: T3, FcγRIIIa; assay: SPR, pH 7.4
[6] = target: the molecule itself; assay: SPR, pH 7.4, self-association, GMP batch
[7] = target: T2, FcγRIIIb; assay: ELISA, immune complexes
[8] = target: T4, FcγRIIb/c (human, UniProt P31994); assay: SPR, pH 7.4
T4 chain: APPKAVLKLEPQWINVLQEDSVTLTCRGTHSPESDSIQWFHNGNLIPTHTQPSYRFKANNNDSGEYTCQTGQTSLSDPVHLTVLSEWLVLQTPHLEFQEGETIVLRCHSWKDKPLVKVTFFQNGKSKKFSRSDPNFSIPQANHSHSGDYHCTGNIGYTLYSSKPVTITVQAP

[9] = target: T5, FcγRI (human, UniProt P12314); assay: ELISA, immune complexes
T5 chain: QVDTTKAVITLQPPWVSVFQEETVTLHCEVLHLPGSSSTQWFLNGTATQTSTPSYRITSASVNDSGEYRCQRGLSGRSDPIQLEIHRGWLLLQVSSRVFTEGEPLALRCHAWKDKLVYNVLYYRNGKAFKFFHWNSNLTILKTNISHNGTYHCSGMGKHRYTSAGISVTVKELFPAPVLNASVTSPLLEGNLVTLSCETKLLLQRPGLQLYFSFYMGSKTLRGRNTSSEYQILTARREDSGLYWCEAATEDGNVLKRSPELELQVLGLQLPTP

[10] = target: T5, FcγRI; assay: SPR, pH 7.4
[11] = target: T6, human C5 (human, UniProt P01031); assay: SPR
[12] = target: T6, human C5; assay: SPR; remark: listed apart in the source
[13] = target: T7, mouse C5 (mouse, UniProt P06684); assay: SPR, pH 7.4
T7 chain 1: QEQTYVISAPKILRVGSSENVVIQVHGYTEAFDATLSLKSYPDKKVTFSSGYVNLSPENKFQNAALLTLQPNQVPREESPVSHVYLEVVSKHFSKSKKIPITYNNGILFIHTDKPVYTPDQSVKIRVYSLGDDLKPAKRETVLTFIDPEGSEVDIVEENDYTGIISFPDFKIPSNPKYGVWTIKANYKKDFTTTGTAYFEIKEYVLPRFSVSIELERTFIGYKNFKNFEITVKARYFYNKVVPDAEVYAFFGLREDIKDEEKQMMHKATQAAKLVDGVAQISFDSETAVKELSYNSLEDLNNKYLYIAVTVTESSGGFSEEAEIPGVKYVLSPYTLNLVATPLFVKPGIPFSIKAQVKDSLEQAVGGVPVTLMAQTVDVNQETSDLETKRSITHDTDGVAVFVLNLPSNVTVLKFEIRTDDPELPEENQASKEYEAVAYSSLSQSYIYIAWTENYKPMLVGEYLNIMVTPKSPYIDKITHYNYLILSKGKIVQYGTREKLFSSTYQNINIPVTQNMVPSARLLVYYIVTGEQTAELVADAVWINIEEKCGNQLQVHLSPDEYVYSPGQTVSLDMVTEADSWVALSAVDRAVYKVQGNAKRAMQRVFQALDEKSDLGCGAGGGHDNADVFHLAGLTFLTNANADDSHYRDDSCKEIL
T7 chain 2: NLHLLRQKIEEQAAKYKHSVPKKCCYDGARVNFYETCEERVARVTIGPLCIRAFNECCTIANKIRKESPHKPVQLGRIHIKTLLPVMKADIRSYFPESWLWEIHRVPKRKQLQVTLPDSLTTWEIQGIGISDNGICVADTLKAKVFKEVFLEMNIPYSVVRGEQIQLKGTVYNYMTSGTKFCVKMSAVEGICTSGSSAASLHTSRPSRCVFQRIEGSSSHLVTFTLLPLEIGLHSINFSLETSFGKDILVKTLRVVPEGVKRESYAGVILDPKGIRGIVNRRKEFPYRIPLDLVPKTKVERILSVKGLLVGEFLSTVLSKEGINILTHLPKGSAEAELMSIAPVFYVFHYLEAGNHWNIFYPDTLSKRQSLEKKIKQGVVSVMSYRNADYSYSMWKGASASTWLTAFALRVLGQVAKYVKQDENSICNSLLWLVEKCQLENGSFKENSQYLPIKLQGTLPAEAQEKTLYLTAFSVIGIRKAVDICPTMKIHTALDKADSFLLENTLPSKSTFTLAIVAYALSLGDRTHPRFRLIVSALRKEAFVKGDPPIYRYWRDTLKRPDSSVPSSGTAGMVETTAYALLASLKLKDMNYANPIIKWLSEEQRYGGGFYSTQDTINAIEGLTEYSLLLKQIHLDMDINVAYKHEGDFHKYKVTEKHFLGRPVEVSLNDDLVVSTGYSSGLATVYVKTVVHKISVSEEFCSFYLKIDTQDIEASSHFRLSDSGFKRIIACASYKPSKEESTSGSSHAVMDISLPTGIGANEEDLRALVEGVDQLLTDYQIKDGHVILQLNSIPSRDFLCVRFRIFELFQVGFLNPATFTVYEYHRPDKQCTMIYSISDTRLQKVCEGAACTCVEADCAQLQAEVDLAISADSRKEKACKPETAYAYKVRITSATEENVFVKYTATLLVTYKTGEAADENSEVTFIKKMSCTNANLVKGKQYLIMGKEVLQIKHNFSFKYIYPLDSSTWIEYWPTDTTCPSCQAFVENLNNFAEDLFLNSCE

[14] = target: T7, mouse C5; assay: SPR, pH 6.0
[15] = target: T7, mouse C5; assay: SPR, pH 6.0

B1: BNJ441 (full length) (antibody)
chain 1: QVQLVQSGAEVKKPGASVKVSCKASGHIFSNYWIQWVRQAPGQGLEWMGEILPGSGHTEYTENFKDRVTMTRDTSTSTVYMELSSLRSEDTAVYYCARYFFGSSPNWYFDVWGQGTLVTVSSASTKGPSVFPLAPCSRSTSESTAALGCLVKDYFPEPVTVSWNSGALTSGVHTFPAVLQSSGLYSLSSVVTVPSSNFGTQTYTCNVDHKPSNTKVDKTVERKCCVECPPCPAPPVAGPSVFLFPPKPKDTLMISRTPEVTCVVVDVSQEDPEVQFNWYVDGVEVHNAKTKPREEQFNSTYRVVSVLTVLHQDWLNGKEYKCKVSNKGLPSSIEKTISKAKGQPREPQVYTLPPSQEEMTKNQVSLTCLVKGFYPSDIAVEWESNGQPENNYKTTPPVLDSDGSFFLYSRLTVDKSRWQEGNVFSCSVLHEALHSHYTQKSLSLSLGK
chain 2: DIQMTQSPSSLSASVGDRVTITCGASENIYGALNWYQQKPGKAPKLLIYGATNLADGVPSRFSGSGSGTDFTLTISSLQPEDFATYYCQNVLNTPLTFGQGTKVEIKRTVAAPSVFIFPPSDEQLKSGTASVVCLLNNFYPREAKVQWKVDNALQSGNSQESVTEQDSKDSTYSLSSTLTLSKADYEKHKVYACEVTHQGLSSPVTKSFNRGEC
- Kd [1]: 2.31 µM
- Kd [2]: 3.33 µM
- Kd [3]: 7100 µM
- binding result [4]: no binding
- Kd [5]: 7.23 µM
- Kd [6]: 270 µM
- binding result [7]: no binding
- Kd [8]: 8.09 µM
- binding result [9]: no binding
- Kd [10]: 3.75 µM

B5: BHL009 (antibody)
chain 1: QVQLQQPGAELVRPGTSVKLSCKASGYTFTSSWMHWVKQRPGQGLEWIGVIDPHDSYTNYNQKFKGKATLTVDTSSSTAYMQLSSLTSEDSAVYYCARGGGSSYNRYFDVWGTGTTVTVSSASTKGPSVFPLAPCSRSTSESTAALGCLVKDYFPEPVTVSWNSGALTSGVHTFPAVLQSSGLYSLSSVVTVPSSNFGTQTYTCNVDHKPSNTKVDKTVERKCCVECPPCPAPPVAGPSVFLFPPKPKDTLMISRTPEVTCVVVDVSQEDPEVQFNWYVDGVEVHNAKTKPREEQFNSTYRVVSVLTVLHQDWLNGKEYKCKVSNKGLPSSIEKTISKAKGQPREPQVYTLPPSQEEMTKNQVSLTCLVKGFYPSDIAVEWESNGQPENNYKTTPPVLDSDGSFFLYSRLTVDKSRWQEGNVFSCSVLHEALHSHYTQKSLSLSLGK
chain 2: not shown
- Kd [13]: 4.19 nM
- binding result [14]: no binding

B6: BHL006 (antibody)
chain 1: B5 chain 1 with L428M, S434N
chain 2: not shown
- Kd [13]: 3.49 nM
- binding result [14]: no binding

B7: BHL011 (antibody, V domains shown)
VH: QVQLQQPGAELVRPGTSVKLSCKASGYTFTSSWMHWVKQRPGQGLEWIGVIDPSDSYTNYNQKFKGKATLTVDTSSSTAYMQLSSLTSEDSAVYYCARGGGSSYNRYFDVWGTGTTVTVSS
VL: NIMMTQSPSSLAVSAGEKVTMSCKSSQSVLYSSNQKNYLAWYQQKPGQSPKLLIYWASTRESGVPDRFTGSGSGTDFTLTISSVQAEDLAVYYCAQYLSSRTFGGGTKLEIKR
- Kd [13]: 0.0952 nM
- Kd [15]: 0.0536 µM

Continued, values first:

- Kd [1]: 2.58 µM
- Kd [8]: 9.84 µM
B2: eculizumab (full length) (antibody)
chain 1: B1 chain 1 with H27Y, H57S, L429M, S435N
chain 2: B1 chain 2

- Kd [11]: 0.000135 µM
- Kd [12]: 0.374 µM
B3: EHL004 (antibody, V domains shown)
VH: QVQLVQSGAEVKKPGASVKVSCKASGYIFSNYWIQWVRQAPGQGLEWMGEILPGSGHTEYTENFKDRVTMTRDTSTSTVYMELSSLRSEDTAVYYCARYFFGSSPNWYFDVWGQGTLVTVSS
VL: DIQMTQSPSSLSASVGDRVTITCGASENIYHALNWYQQKPGKAPKLLIYGATNLADGVPSRFSGSGSGTDFTLTISSLQPEDFATYYCQNVLNTPLTFGQGTKVEIK

- Kd [11]: 0.00115 µM
B4: EHL046 (antibody, V domains shown)
VH: B3 VH with Y27H, L52H, H57S
VL: B3 VL
